Experiment: soluble on expression in E. coli; label from the status in PepcDB or PDB records

| Sequence | soluble on expression in E. coli |
| --- | --- |
| MGSDKIHHHHHHMREIMSIITLPRKIYQQRDIIDNIRETLQLKEPILLVSDRNIMKLYGQRIKNALDGSDYRVIEDVRPEPEVSDIENTYRSLSGFQPKTIIAFGGGSVIDFAKSIDVKISYPDRSLEEVNPFEPLNLKADLVAIPTTSGTGSDVSFGIVITDQGRKLALGNFDLVPYVSVLDSSLVPSDPSIIRPTGVDALVHSFEALTANTSSIFTDALAEKAIETIFGILIDPMKGEEDARENMHLAATMAGISFTNSGTALAHALGHSFGSTHHVVHGTCVGLFLPYVIEFNSSDENASEKYARIARRLGYKDAISALRDLYRRIGQPLTVAEIGIPKDAYMKSLDSMVEKALADSELAFNPVIAGDEDVRSIYIKAYGD | not soluble |
| MGNCWFKGNPYFNRVSSNATKSESPKMQSPSERKEKDDSMLPSNAKEVEELRRESARNPLIAFTFEELKRITKNFRQDSLLGGGGFGRVYKGYITSDLREGLTIEEPLRVAVKVHDGDNSFQGHREWLAEVIFLGQLSHPNLVKLIGYCCEDDHRVLVYEFMPLGSVESHLFSRVMVPLPWFTRMKIALGAAKGLAFLHEAEKPVIYRDFKTSNILLDEEYNAKLSDFGLAKDGPVGDKSHVSTRIMGTYGYAAPEYIMTGHLTAMSDVYSYGVVLLELLTGRKSLDKSRPVREQTLADWAFPMLIQKKKVLGIVDPRLAEDYPVKAVQKTAMLAYHCLNRNPKARPLMRDIVATLEPLQQMEEDPSISLVSGTEV | soluble |
| SDWKLEGSTQKVESPVLQGQEGILEETGEDGLPEGFQLLQIDAEGECQEGEILATGSTAWCSKNVQRKQRHWEKIVAAKKSKRKQEKERRKANRAENPGICPQHSKRFLRALTKDKLLEAKHSGPRLCIDLSMTHYMSKKELSRLAGQIRRLYGSNKKADRPFWICLTGFTTDSPLYEECVRMNDGFSSYLLDITEEDCFSLFPLETLVYLTPDSEHALEDVDLNKVYILGGLVDESIQKKVTFQKAREYSVKTARLPIQEYMVRNQNGKNYHSEILAINQVFDILSTYLETHNWPEALKKGVSSGKGYILRNSVE | soluble |
| MSLQSADESTFDRIRRTKKLRIGAVAGGAPYYNKDLATGQWKGFYIDISKALADELECQLEITETTWGNSVLDLQANKIDIFFGLNPTPKRALVVDFSVPVFSNAFTMLTRKDFAPKTWAELNDPNVKIAVDVGSSHDQVVSRLCPKAQIVRLKTADEATMALVSGRVDAQCIILMLALTVRKKNPNVGQLLVPTPVFSTTSNAGFRRENDKTWRDYVNTWIEYNKGLGFIRSAIVTNMELVGVTEADMPAGIQEGHHHHHH | soluble |
| MNGRRWMVLAAVVGVSTLSACASQGHDSDETLPTYTPPAWMAEVRAQNEEYANAGVACLAAHGVEGTADNGTFGISYGPQSQGALTHMTDEEADALLTECSESLSLPDYVNNSADEEYDRVLDLRECVIAQGYDMPDAPSREVWTEQWERTRDAWVPYYHEMTLDPDGLERHKVTVEEMNRLQSICVPSTVGATTVSR | not soluble |
| AHHHHHHGSILLLTGMPGSGKGVVAREFEKRGIPVVSMGDAIREEAEKRGIPKTPEGLKEVSLKVREELGPGAVAILTVPKVRKLLELNPVVVVEGVRSPYEVEEFRKEFKNEEIKVVAIHSSPKSRFQRLLKRQRSDDPKTWEEFVERDRKELNFGIGEVIALADYIIVNECGFDQLKANIEKLISMIFDGKI | soluble |
| MIPVTRMAVGKGTVSTRIKGLRGRRPSSFADILRPVVFWNITRACNLKCIHCYISAGPHPLPGELSTEEALGVARQLVEHGVPLVTLSGGEPLVRRDFWAIAKALSGHDTPKLALSSNGTLITRETAARLRRLGFSYVGISLDSVDPGVHDKFRGAPGAFKAAIRGARNALEEGLDVGFRLTITKYNLDDAPRIIRLASDMGVPRVAIYVVDLLGRATPDLAPSPEDLRRAIDAILEESVRHQDRVEVLLVRANFAGVYLADRLAKTRDEFLQLLSLVGSHGDCGRKSVSIYPDGTVRPCQFLEEVVIGDLRRQRLGEILSADNPLLKPFIAVDTMLRGPKCGGCPFKRVCGGGSRMRALKTTGEFWGDDPLCFIDPWSIARRWGYSAG | not soluble |
| MRGSHHHHHHGSKVRGKYDGPKINDYDKFYEDIWKKYVPQPVEVKQGSVYDYYDILEELGSGAFGVVHRCVEKATGRVFVAKFINTPYPLDKYTVKNEISIMNQLHHPKLINLHDAFEDKYEMVLILEFLSGGELFDRIAAEDYKMSEAEVINYMRQACEGLKHMHEHSIVHLDIKPENIMCETKKASSVKIIDFGLATKLNPDEIVKVTTATAEFAAPEIVDREPVGFYTDMWAIGVLGYVLLSGLSPFAGEDDLETLQNVKRCDWEFDEDAFSSVSPEAKDFIKNLLQKEPRKRLTVHDALEHPWLKGDHSNLTSRIPSSRYNKIRQKIKEKYADWPAPQPAIGRIANFSSLRKHRPQEYQIYDSYFDRKEAVPRFKLRPSLISS | soluble |
| MAGTRDYDHLFKLLIIGDSGVGKSSLLLRFADNTFSENYITTIGVDFKIRTMDINGQRVKLQIWDTAGQERFRTITSTYYRGTHGVVVVYDVTNGESFGNVKRWLQEIENNCDSVQKVLVGNKCEENERRVVLESDARNYAQSMNISFFETSAKEDKNVEPMFTCITSLVLTAKLANPQSASKDQSRTGGVSLKDNSGSTNQKKKCKCG | not soluble |
| MEFVLASASPARRRLLQGIGINPIVHVSHFDESQIHHDDPAQLVEALAAAKAKTVAQHRQDALILGCDSVLHVRGEILGKPASPTEAIARWQTMRGHYGLLYTGHALVDQTQNQLLVRHGVTKVYFAAIDDDTIAAYVRSGEPLQCAGCFALEGKGGLFIEKIEGCHSNVIGLSLPLLREMLAHLGYTVQTLWP | not soluble |
| MSLSQPIYKRILLKLSGEALQGEDGLGIDPAILDRMAVEIKELVEMGVEVSVVLGGGNLFRGAKLAKAGMNRVVGDHMGMLATVMNGLAMRDSLFRADVNAKLMSAFQLNGICDTYNWSEAIKMLREKRVVIFSAGTGNPFFTTDSTACLRGIEIEADVVLKATKVDGVYDCDPAKNPDAKLYKNLSYAEVIDKELKVMDLSAFTLARDHGMPIRVFNMGKPGALRQVVTGTEEGTTICEGHHHHHH | soluble |
| MIKPEYVVKLLSENMKKTRNPLGIKNEKTNNWWKKVEISKEGDWLFFTGMLYQLTPYIEATVKFLEKIENSRLQGLLTLSKAFPVPFSLLKAITPREAREEAETILQKVYFLLAKSVDVFYAPHLDFYSGILLYDFGHDEAFAEHAKFVCKRLESAGIEKIVTPDPHTTYALKVLYPKFTGVEFDVKSYIELLSDAKSLFNEEFVIHDPCYYGRYLELSDRVREVLNCAGVKYRGVRYSGRLTNCCGGPVEALSPKISREIARLRVEELGNSRIITFCPICLANLRRAGGNAVDFSMVVG | not soluble |
| MGSDKIHHHHHHMRTALLEVGLEELPASEFHSILKQLEEKSAELLKAYRVSSGSVEVFVGSRRFGVILKNLPERQEDFTEEKKGPPLNVAYDENGKPTRALEGFLRNNNASLENVVHREGYVYLSRVVEGKPVEEVLPDLFRDLVLGLNFRKPMRWGSGEHEYIRPVHWIVAMVDGRVLDLEIFGLRSSRISYGKRYHAGSIEIPDSERYYESLKKGFVISSHLERKKFVLEQIDEFEKRSSMKIERDEELIEEIVAITEYPRIVVGQFDRKYLELPEEIIVTAVKHHQRSFIAHKGTLTNTFVAFQDGPQPPENVVKGYERVINARLEDARYYFQKDLETPLEKMNEKLKEIVFQEKLGTLYDKVERIKKISQRLCEDLKLPGSFTQKVLEAASICKADIASKVVYEFPELQGVMGRIYALREGINEEIATAIEDHYSEEPQTVIGSILGIADRIDTIVGNFAIGNVPTSSKDPYGLKSKADTIFRIIRKNEWDISLEELLTFASSLVGYRLSEELETFFAGRFYQFLINELGISFDVARAVNHLWKKPLRGILSAEALQEISEKPEFQDLFVGFERVHNITKNHDSTKFDGALFEKEEEKKLMNKFYEVKEKVLKALERLNYREALQYLIELKPYIDEYFDNVFVMVKRDDLRVNRLSFLKNIDELFMMVGDMTYLVKRSQV | not soluble |
| MGSDKIHHHHHHMKILHYIPSIDRTSGGVGTYMQLLTAELGKLVELHVVTHKETNPLELKNCHVHFIENNNPFLPKEKKNFIFLLNEIKPDVFHANCCWLPMSAYTAMWARNAGYHVVYTPHGMLEPWIMKRHYWTKKFPASLLFQKRGIQIANVIHATAESEKHNLTQLGWNNNIEVIPNCVEIDKITMKESWIRNKNILFLSRVHVKKGINFLIEATANLKTELQGYTINIAGEGEESYINELKQLASKLGVENLIHFIGGVYGDKKWELFKKADLFVLPTHSENFGIVVAEALACGTPVITTQGTPWQELESYHCGWWTEIGTEATTKALKEFLQCTETQLEQMGKNGRKLIEEKYSSQKVAQDMVELYKKVCL | not soluble |
| MRRQRRSITDIICENCNYLPTKRSRNKRKPIPKESDVKTFNYTAHLWDIRWLRERARKTR | not soluble |
| MYKIGIDVGGTNTDAVILDHQLNLIHSVKVPTTDDIQTGIAGALNKVLAESAVDPTKVTHAMLGTTQCTNAIVERKKLAKVGVLRLGYPATASVLPYTAWPKDLVATLSETYALAHGGYEYDGQPLTALDEEELRGILASWRGEVEAIAVIGVFSSLKNDQELFVQALAKEVL | not soluble |
| MGSDKIHHHHHHMEQLPILNLSDWHAGGQSRHAFITKLADAARRIGFFYLTGHGIELARQQQVLLLARDFFALPLADKLAVKMTNTPHFRGYTRLQGELTLGKPDLREQFDIMQEETANPPRSDVPKWSQLQGPNQWPSQLPQMKTILLEWQQDLADTSVALLKALAVALEQSETAFDATIDAGPYQHMKLIRYPNANGETSGQGVGAHKDPGYLTLVLQDKQSGLEVQTDEGWLSIPPLEGAFVVNIGELLELASNGYLKATYHRVTSPPAGVERYSCAFFMAAQLNATVPLLPLPEYLARQALGPASDPLNPLFHQVGQNVLKGRLRSHPDVAKAHYASFANAI | not soluble |
| MASLFTQEIHLSKRHEEILSQRLMLLQKMKNKFGDENTERASLLQATETASRRNLRLLKDIDAAEEAFQTKLIPHPQPSMLSLETRYWASVEEHIPKWELFLLGRAPYPIGAENQNEVPFVQTEATL | soluble |
| MPRFSCYEVRSEFPELERGIVYLDNAASTLKPRRVVEAMREFSYRSYANVHRGVHRLSMEASKAYEDAHEVVARLVGGSWDEVVFTRNTTEAMQLAALTLAYNGLLRGGEVLVTAADHHSTLLPWVRAARLGGGRARILPLDGRGVPRWDLLEDYITEDTRAVAVGHVSNVTGVVAPVEDIVKAAKKVGALVVLDSAQGVPHLPVDFRRMGVDMAAFSGHKMLGPTGIGVLWARRDLLEELEPPLGGGGTVSRVRLQGGSVEIEWEEPPWKFEAGTPPIIEAVGLAEAANMLMEIGMEHVARHEDELTSHTMKLLEPLYSEGLIRYVGPDKPGERHGIVSITTHLKSPDELGLLLDRRGIAVRTGLHCAHILHDHVDASMGSVWASFYIYNCKEDAERLAEALEEILTTRR | soluble |
| MGHHHHHHSHGTRMDHRSDLVFLADLRPEEIRYRLQHYFKFLFVREPLERLLSAYRNKFGEIREYQQRYGAEIVRRYRAGAGPSPAGDDVTFPEFLRYLVDEDPERMNEHWMPVYHLCQPCAVHYDFVGSYERLEADANQVLEWVRAPPHVRFPARQAWYRPASPESLHYHLCSAPRALLQDVLPKYILDFSLFAYPLPNVTKEACQQ | not soluble |
